Data reported in article PMC6117947, “A role for trypanosomatid aldo-keto reductases in methylglyoxal, prostaglandin and isoprostane metabolism” (Biochemical Journal, 2018).

Legend:
[1] = target: Leishmania infantum prostaglandin F synthase 1 (LiPGFS1) (Leishmania infantum); assay: SEC; Superdex 75 10/300; LiPGFS1 kept 96 h at 4°C without a reducing agent, run without TCEP; the dimer relies on a disulfide bond
purified protein [2] = substrate: O=CC=O; assay: purified protein; format: biochemical, Trypanosoma cruzi; details: 100 µM NADPH, 25 mM HEPES, 150 mM NaCl, pH 7.33
purified protein [3] = substrate: O=Cc1ccccc1[N+](=O)[O-]; assay: purified protein; format: biochemical, Trypanosoma cruzi; details: 100 µM NADPH, 25 mM HEPES, 150 mM NaCl, pH 7.33
purified protein [4] = substrate: O=CC(=O)c1ccccc1; assay: purified protein; format: biochemical, Trypanosoma cruzi; details: 100 µM NADPH, 25 mM HEPES, 150 mM NaCl, pH 7.33
purified protein [5] = substrate: CC(=O)C=O; assay: purified protein; format: biochemical, Trypanosoma cruzi; details: 100 µM NADPH, 25 mM HEPES, 150 mM NaCl, pH 7.33
purified protein [6] = substrate: O=CC(O)CO; assay: purified protein; format: biochemical, Trypanosoma cruzi; details: 100 µM NADPH, 25 mM HEPES, 150 mM NaCl, pH 7.33
purified protein [7] = substrate: O=CC=O; assay: purified protein; format: biochemical, Leishmania infantum; details: 100 µM NADPH, 25 mM HEPES, 150 mM NaCl, pH 7.33
purified protein [8] = substrate: O=Cc1ccccc1[N+](=O)[O-]; assay: purified protein; format: biochemical, Leishmania infantum; details: 100 µM NADPH, 25 mM HEPES, 150 mM NaCl, pH 7.33
purified protein [9] = substrate: O=Cc1ccc([N+](=O)[O-])cc1; assay: purified protein; format: biochemical, Leishmania infantum; details: 100 µM NADPH, 25 mM HEPES, 150 mM NaCl, pH 7.33
purified protein [10] = substrate: O=Cc1cccc([N+](=O)[O-])c1; assay: purified protein; format: biochemical, Leishmania infantum; details: 100 µM NADPH, 25 mM HEPES, 150 mM NaCl, pH 7.33
purified protein [11] = substrate: CC(=O)C=O; assay: purified protein; format: biochemical, Leishmania infantum; details: 100 µM NADPH, 25 mM HEPES, 150 mM NaCl, pH 7.33
purified protein [12] = substrate: O=CC(=O)c1ccccc1; assay: purified protein; format: biochemical, Leishmania infantum; details: 100 µM NADPH, 25 mM HEPES, 150 mM NaCl, pH 7.33
purified protein [13] = substrate: O=CC(O)CO; assay: purified protein; format: biochemical, Leishmania infantum; details: 100 µM NADPH, 25 mM HEPES, 150 mM NaCl, pH 7.33
purified protein [14] = substrate: O=Cc1ccccc1[N+](=O)[O-]; assay: purified protein; format: biochemical, Trypanosoma brucei; details: 100 µM NADPH, 25 mM HEPES, 150 mM NaCl, pH 7.33
purified protein [15] = substrate: O=Cc1ccc([N+](=O)[O-])cc1; assay: purified protein; format: biochemical, Trypanosoma brucei; details: 100 µM NADPH, 25 mM HEPES, 150 mM NaCl, pH 7.33
purified protein [16] = substrate: O=CC(=O)c1ccccc1; assay: purified protein; format: biochemical, Trypanosoma brucei; details: 100 µM NADPH, 25 mM HEPES, 150 mM NaCl, pH 7.33
purified protein [17] = substrate: O=Cc1cccc([N+](=O)[O-])c1; assay: purified protein; format: biochemical, Trypanosoma brucei; details: 100 µM NADPH, 25 mM HEPES, 150 mM NaCl, pH 7.33
purified protein [18] = substrate: CC(=O)C=O; assay: purified protein; format: biochemical, Trypanosoma brucei; details: 100 µM NADPH, 25 mM HEPES, 150 mM NaCl, pH 7.33

How did the percent of the protein eluting as dimer [1] turn out when “Leishmania infantum prostaglandin F synthase 1 (LiPGFS1) (enzyme)” was run?
The percent of the protein eluting as dimer was 25%.

What about the stoichiometry N [1] of the same molecule?
The stoichiometry N was 2.

B1: TcAKR (Trypanosoma cruzi) (protein)
chain: MNCNYNCVTLHNSAQMPQLGLGVWRAQDGAETANAVRWAIEAGYRHIDTACIYNNEKGVGQGIRESGVPREEVWVTTKVWNSDQGYEKTLAAFERSRELLGLEYIDLYLIHWPGKKKFVDTWKALEKLYEEKKVRAIGVSNFEPHHLTELFKSCKIRPMVNQVELHPLFQQRALREFCKQHNIAVTAWSPLGSGDEAGILKNHVLGEIAKKHNKSPAQVVIRWDIQHGIVTIPKSTNKGRIQENFNVWDFKLTEEEMRQIDELNEDKRIGADPDNFFPGGEE
notes: full-length ORF, pET15b-TEV, E. coli Rosetta (DE3) pLysS, His6 tag cut with TEV protease; monomer
With B1 as the molecule, how does the Km (purified protein [2]) read?
The Km was 8.30 ± 0.31 mM.

And the kcat (purified protein [2])?
Its kcat is 4.56 ± 0.05 s⁻¹.

What about the kcat/Km (purified protein [2]) of the same molecule?
The kcat/Km was 549 M⁻¹ s⁻¹.

And the Km (purified protein [3])?
Its Km is 0.71 ± 0.08 mM.

And the kcat (purified protein [3])?
The kcat was 2.25 ± 0.11 s⁻¹.

And the kcat/Km (purified protein [3])?
The kcat/Km was 3170 M⁻¹ s⁻¹.

What about the Km (purified protein [4]) of the same molecule?
The Km was 0.05 ± 0.003 mM.

And the kcat (purified protein [4])?
Its kcat is 4.46 ± 0.08 s⁻¹.

What about the kcat/Km (purified protein [4]) of the same molecule?
Its kcat/Km is 89200 M⁻¹ s⁻¹.

What about the kcat (purified protein [5]) of the same molecule?
Its kcat is 4.69 ± 0.03 s⁻¹.

And the kcat/Km (purified protein [5])?
Its kcat/Km is 19500 M⁻¹ s⁻¹.

What about the Km (purified protein [6]) of the same molecule?
Its Km is 1.50 ± 0.17 mM.

What about the kcat (purified protein [6]) of the same molecule?
Its kcat is 4.94 ± 0.11 s⁻¹.

What about the kcat/Km (purified protein [6]) of the same molecule?
The kcat/Km was 3290 M⁻¹ s⁻¹.

B2: LiPGFS2 (Leishmania infantum) (protein)
chain: MADVGKAMVTLSNGVQMPQLGLGVWQSPAGEVTANAVKWALCAGYRHIDTAAIYKNEESVGAGLRASGVPREDVFITTKLWNTEQGYESTLAAFEESRQKLGVDYIDLYLIHWPRGKDIVSKEGKKYLDSWRAFEQLYKDKKVRAIGVSNFHIHHLEDVLAMCTVTPMVNQVELHPLNNQAELRAFCDAKQIKVEAWSPLGQGKLLSNPILAAIGAKYNKTAAQVILRWNIQKNLITIPKSVHKERIEENADVFNFELGAEDVMRIDALNTNSRYGPDPDEAQF
notes: full-length ORF from genomic DNA, pET15b-TEV, E. coli, His6 tag cut with TEV protease; monomer
Which results are given for B2?
Km (purified protein [7]): 0.56 ± 0.05 mM; kcat (purified protein [7]): 1.05 ± 0.02 s⁻¹; kcat/Km (purified protein [7]): 1880 M⁻¹ s⁻¹; Km (purified protein [8]): 0.0024 ± 0.0003 mM; kcat (purified protein [8]): 1.04 ± 0.02 s⁻¹; kcat/Km (purified protein [8]): 433000 M⁻¹ s⁻¹; Km (purified protein [9]): 0.004 ± 0.0006 mM; kcat (purified protein [9]): 1.13 ± 0.05 s⁻¹; kcat/Km (purified protein [9]): 283000 M⁻¹ s⁻¹; Km (purified protein [10]): 2 ± 0.3 µM; kcat (purified protein [10]): 1.04 ± 0.02 s⁻¹; kcat/Km (purified protein [10]): 520000 M⁻¹ s⁻¹; kcat (purified protein [11]): 1.13 ± 0.01 s⁻¹; kcat/Km (purified protein [11]): 56500 M⁻¹ s⁻¹

B3: LiPGFS1 (Leishmania infantum) (protein)
chain: MTGKCTHVTLGNGVQVPQLGIGTWEAKNGNEVVQNIKWAINAGYRHIDTAHYYKNEKGVGQGISECGVPRSDIFVTTKLWNYDHGYESALAAFEQSRQALGVEYVDLYLIHWPGPNRSYIETWRAFEKLYEMKKVRAIGVSNFEPHHLDDLLANCTVPPMVNQVEMHPHFQQKALRAYCAEKNIAVTAWRPLGKGALLTEPQLVELAEKHKRSAAQVIIRWLIQLGVIAIPKSSHEERIKQNFDVFDFELSPEDMRRLESMDKNSRIGPSPETFFPTECK
notes: synthetic full-length ORF (GeneART), pET15b-TEV, E. coli, His6 tag cut with TEV protease; mainly monomer
For B3, which Km (purified protein [8]) is on record?
Its Km is 0.32 ± 0.02 mM.

What about the kcat (purified protein [8]) of the same molecule?
The kcat was 8.5 ± 0.21 s⁻¹.

What about the kcat/Km (purified protein [8]) of the same molecule?
Its kcat/Km is 26600 M⁻¹ s⁻¹.

What about the Km (purified protein [9]) of the same molecule?
Its Km is 0.43 ± 0.026 mM.

And the kcat (purified protein [9])?
The kcat was 0.48 ± 0.01 s⁻¹.

What about the kcat/Km (purified protein [9]) of the same molecule?
Its kcat/Km is 1110 M⁻¹ s⁻¹.

What about the Km (purified protein [12]) of the same molecule?
The Km was 0.14 ± 0.008 mM.

What about the kcat (purified protein [12]) of the same molecule?
Its kcat is 10.4 ± 0.22 s⁻¹.

What about the kcat/Km (purified protein [12]) of the same molecule?
The kcat/Km was 74300 M⁻¹ s⁻¹.

What about the Km (purified protein [11]) of the same molecule?
The Km was 0.80 ± 0.07 mM.

What about the kcat (purified protein [11]) of the same molecule?
Its kcat is 8.72 ± 0.17 s⁻¹.

What about the kcat/Km (purified protein [11]) of the same molecule?
Its kcat/Km is 10900 M⁻¹ s⁻¹.

What about the Km (purified protein [13]) of the same molecule?
Its Km is 2.87 ± 0.08 mM.

And the kcat (purified protein [13])?
Its kcat is 8.72 ± 0.11 s⁻¹.

And the kcat/Km (purified protein [13])?
The kcat/Km was 3040 M⁻¹ s⁻¹.

B4: TbPGFS (Trypanosoma brucei brucei) (protein)
chain: MALTQSLKLSNGVMMPVLGFGMWKLQDGNEAETATMWAIKSGYRHIDTAAIYKNEESAGRAIASCGVPREELFVTTKLWNSDQGYESTLSAFEKSIKKLGLEYVDLYLIHWPGKDKFIDTWKAFEKLYADKKVRAIGVSNFHEHHIEELLKHCKVAPMVNQIELHPLLNQKALCEYCKSKNIAVTAWSPLGQGHLVEDARLKAIGGKYGKTAAQVMLRWEIQAGVITIPKSGNEARIKENGNIFDFELTAEDIQVIDGMNAGHRYGPDPEVFMNDF
notes: as for B2
B4 was tested. Which Km (purified protein [14]) did it give?
Its Km is 3 ± 0.3 µM.

What about the kcat (purified protein [14]) of the same molecule?
Its kcat is 0.41 ± 0.002 s⁻¹.

What about the kcat/Km (purified protein [14]) of the same molecule?
The kcat/Km was 140000 M⁻¹ s⁻¹.

And the Km (purified protein [15])?
Its Km is 4.3 ± 0.2 µM.

What about the kcat (purified protein [15]) of the same molecule?
The kcat was 0.43 ± 0.008 s⁻¹.

And the kcat/Km (purified protein [15])?
The kcat/Km was 100000 M⁻¹ s⁻¹.

What about the Km (purified protein [16]) of the same molecule?
The Km was 5 ± 0.8 µM.

What about the kcat (purified protein [16]) of the same molecule?
Its kcat is 0.34 ± 0.014 s⁻¹.

And the kcat/Km (purified protein [16])?
The kcat/Km was 68000 M⁻¹ s⁻¹.

And the Km (purified protein [17])?
The Km was 2 ± 0.1 µM.

And the kcat (purified protein [17])?
The kcat was 0.34 ± 0.005 s⁻¹.

And the kcat/Km (purified protein [17])?
Its kcat/Km is 170000 M⁻¹ s⁻¹.

What about the kcat (purified protein [18]) of the same molecule?
The kcat was 0.38 ± 0.007 s⁻¹.

And the kcat/Km (purified protein [18])?
Its kcat/Km is 38000 M⁻¹ s⁻¹.
